Target: OT-I T cell receptor on OTi target T cells (splenocytes from OT-I mouse) (mouse)
Test: cell-based or functional assay

Substance: FITC-conjugated H2Kb-SIINFEKL tetramer (from UniProt P01901 22-305) (peptide-MHC)
- cytotoxicity of CD8 CAR T cells on OTi cells: > 50%

Source: patent publication US20240139242A1
